From the supplement of paper PMC10567573

B1: KCNA3 (parent)
chain: YQSGGRIRRPVNVPIDIFSEEIRF

Variants of: B1
Experiment: protein stability index of a GFP-peptide fusion (GPS, HEK-293T) (PSI 1-6); higher = more stable
Settings: c terminus: a fixed tail appended
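Further: lentivirally expressed fusions sorted by FACS into six bins by GFP to DsRed ratio, PSI derived from sequencing read proportions per bin multiplied by bin number.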

Q: With I17H as the variant, how does the protein stability index read?
A: The protein stability index was 1.91.

Q: With I17G as the variant, how does the protein stability index read?
A: Its protein stability index is 2.19.

Q: With I17A as the variant, how does the protein stability index read?
A: Its protein stability index is 2.85.

Q: Which protein stability index does the source give for I17K here?
A: The protein stability index was 2.05.

Q: For I17V, which protein stability index is on record?
A: The protein stability index was 2.48.

Q: For I17L, which protein stability index is on record?
A: Its protein stability index is 1.86.

Q: For I17W, which protein stability index is on record?
A: Its protein stability index is 1.23.

Q: Which protein stability index does the source give for I17F here?
A: The protein stability index was 1.76.

Q: Which protein stability index does the source give for I17M here?
A: The protein stability index was 2.21.

Q: With I17P as the variant, how does the protein stability index read?
A: The protein stability index was 3.32.

Q: With I17T as the variant, how does the protein stability index read?
A: Its protein stability index is 1.97.

Q: With V13F as the variant, how does the protein stability index read?
A: Its protein stability index is 1.86.

Q: Which protein stability index does the source give for V13D here?
A: Its protein stability index is 2.14.

Q: With V13E as the variant, how does the protein stability index read?
A: The protein stability index was 2.14.

Q: Which protein stability index does the source give for V13K here?
A: The protein stability index was 2.36.

Q: For V13L, which protein stability index is on record?
A: The protein stability index was 1.95.

Q: For V13T, which protein stability index is on record?
A: The protein stability index was 1.82.

Q: With V13S as the variant, how does the protein stability index read?
A: Its protein stability index is 2.11.

Q: Which protein stability index does the source give for V13G here?
A: Its protein stability index is 2.31.

Q: Which protein stability index does the source give for V13N here?
A: The protein stability index was 2.13.

Q: For V13W, which protein stability index is on record?
A: The protein stability index was 2.01.

Q: For V13I, which protein stability index is on record?
A: Its protein stability index is 2.43.

Q: With V13Y as the variant, how does the protein stability index read?
A: Its protein stability index is 1.69.

Q: Which protein stability index does the source give for V13Q here?
A: Its protein stability index is 2.42.

Q: Which protein stability index does the source give for V13H here?
A: The protein stability index was 2.19.

Q: Which protein stability index does the source give for V13A here?
A: Its protein stability index is 1.88.

Q: For V13C, which protein stability index is on record?
A: Its protein stability index is 1.78.

Q: Which protein stability index does the source give for V13R here?
A: Its protein stability index is 2.01.

Q: For V13M, which protein stability index is on record?
A: The protein stability index was 2.25.

Q: Which protein stability index does the source give for V13P here?
A: The protein stability index was 1.86.

Q: For I15M, which protein stability index is on record?
A: The protein stability index was 2.13.

Q: With I15P as the variant, how does the protein stability index read?
A: The protein stability index was 2.03.

Q: With I15F as the variant, how does the protein stability index read?
A: Its protein stability index is 1.48.

Q: Which protein stability index does the source give for I15G here?
A: The protein stability index was 2.4.

Q: Which protein stability index does the source give for I15H here?
A: Its protein stability index is 2.16.

Q: Which protein stability index does the source give for I15E here?
A: The protein stability index was 2.11.

Q: Which protein stability index does the source give for I15S here?
A: Its protein stability index is 2.69.

Q: Which protein stability index does the source give for I15Y here?
A: Its protein stability index is 1.63.

Q: For I15T, which protein stability index is on record?
A: The protein stability index was 2.37.

Q: With I15A as the variant, how does the protein stability index read?
A: The protein stability index was 3.48.

Q: With I15C as the variant, how does the protein stability index read?
A: Its protein stability index is 2.13.

Q: For I15W, which protein stability index is on record?
A: The protein stability index was 1.92.

Q: For I15L, which protein stability index is on record?
A: Its protein stability index is 1.83.

Q: For I15N, which protein stability index is on record?
A: The protein stability index was 2.36.

Q: Which protein stability index does the source give for I15Q here?
A: Its protein stability index is 2.56.

Q: For I15K, which protein stability index is on record?
A: The protein stability index was 2.19.

Q: With I15D as the variant, how does the protein stability index read?
A: The protein stability index was 2.33.

Q: With I15R as the variant, how does the protein stability index read?
A: Its protein stability index is 2.41.

Q: With F18V as the variant, how does the protein stability index read?
A: Its protein stability index is 2.41.

Q: Which protein stability index does the source give for F18H here?
A: The protein stability index was 2.29.

Q: Which protein stability index does the source give for F18S here?
A: Its protein stability index is 2.8.

Q: Which protein stability index does the source give for F18C here?
A: Its protein stability index is 2.36.

Q: With F18N as the variant, how does the protein stability index read?
A: Its protein stability index is 3.17.

Q: With F18E as the variant, how does the protein stability index read?
A: Its protein stability index is 3.23.

Q: For F18G, which protein stability index is on record?
A: The protein stability index was 2.49.

Q: With F18A as the variant, how does the protein stability index read?
A: Its protein stability index is 2.68.

Q: With F18Y as the variant, how does the protein stability index read?
A: The protein stability index was 2.2.

Q: For F18P, which protein stability index is on record?
A: The protein stability index was 2.55.

Q: For F18I, which protein stability index is on record?
A: Its protein stability index is 1.49.

Q: Which protein stability index does the source give for F18L here?
A: Its protein stability index is 2.63.

Q: With F18M as the variant, how does the protein stability index read?
A: Its protein stability index is 2.35.

Q: Which protein stability index does the source give for F18K here?
A: The protein stability index was 1.99.

Q: Which protein stability index does the source give for F18R here?
A: Its protein stability index is 2.11.

Q: With F18Q as the variant, how does the protein stability index read?
A: Its protein stability index is 1.81.

Q: With F18D as the variant, how does the protein stability index read?
A: The protein stability index was 2.3.

Q: With F18T as the variant, how does the protein stability index read?
A: Its protein stability index is 2.4.

Q: Which protein stability index does the source give for V11A here?
A: Its protein stability index is 2.49.

Q: With V11Y as the variant, how does the protein stability index read?
A: Its protein stability index is 2.18.

Q: With V11D as the variant, how does the protein stability index read?
A: Its protein stability index is 1.69.

Q: With V11T as the variant, how does the protein stability index read?
A: The protein stability index was 1.98.

Q: With V11K as the variant, how does the protein stability index read?
A: The protein stability index was 1.85.

Q: Which protein stability index does the source give for V11N here?
A: Its protein stability index is 2.42.

Q: With V11I as the variant, how does the protein stability index read?
A: Its protein stability index is 1.7.

Q: With V11C as the variant, how does the protein stability index read?
A: The protein stability index was 2.39.

Q: For V11F, which protein stability index is on record?
A: The protein stability index was 2.02.

Q: For V11Q, which protein stability index is on record?
A: The protein stability index was 2.03.

Q: Which protein stability index does the source give for V11G here?
A: The protein stability index was 1.79.

Q: Which protein stability index does the source give for V11R here?
A: The protein stability index was 2.37.

Q: With V11S as the variant, how does the protein stability index read?
A: The protein stability index was 1.74.

Q: For V11P, which protein stability index is on record?
A: The protein stability index was 1.83.

Q: For V11E, which protein stability index is on record?
A: The protein stability index was 3.13.

Q: Which protein stability index does the source give for V11M here?
A: The protein stability index was 2.01.

Q: Which protein stability index does the source give for V11H here?
A: Its protein stability index is 1.66.

Q: For V11L, which protein stability index is on record?
A: Its protein stability index is 1.44.
